Here are results for 1 substance from patent US20200148733A1.

For the assay, the target named is human IL-23 (human) (UniProt Q9NPF7). The assay is described as follows: cell-based or functional assay.
Chain of human IL-23 (human) (Q9NPF7 20-189, chain 1 of 2): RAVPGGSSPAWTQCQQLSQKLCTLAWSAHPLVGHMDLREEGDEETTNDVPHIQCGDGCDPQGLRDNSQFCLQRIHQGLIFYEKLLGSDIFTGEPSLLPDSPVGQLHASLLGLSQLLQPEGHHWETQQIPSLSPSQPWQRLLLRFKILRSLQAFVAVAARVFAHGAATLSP
Chain of human IL-23 (human) (P29460 23-328, chain 2 of 2, further chain): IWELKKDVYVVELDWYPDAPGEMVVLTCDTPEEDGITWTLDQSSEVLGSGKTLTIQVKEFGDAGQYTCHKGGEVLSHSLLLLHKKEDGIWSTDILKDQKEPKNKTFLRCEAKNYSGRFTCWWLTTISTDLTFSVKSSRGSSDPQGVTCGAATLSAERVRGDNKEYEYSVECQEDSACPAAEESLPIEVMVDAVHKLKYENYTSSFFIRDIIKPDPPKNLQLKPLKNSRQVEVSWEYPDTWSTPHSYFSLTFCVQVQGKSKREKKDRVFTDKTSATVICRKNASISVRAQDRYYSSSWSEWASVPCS

In turn, “benchmark antibody ustekinumab (Stelara, obtained from Janssen-Cilag)” came in with an EC50 [nM] AVERAGE, hIL-23-induced proliferation of Ba/F3 cells expressing hIL-23R and hIL-12Rβ1 of 2.4 nM; an EC50 [nM] Exp 1, hIL-23-induced proliferation of Ba/F3 cells expressing hIL-23R and hIL-12Rβ1 of 1.9 nM; an EC50 [nM] Exp 2, hIL-23-induced proliferation of Ba/F3 cells expressing hIL-23R and hIL-12Rβ1 of 2.3 nM; an EC50 [nM] Exp 3, hIL-23-induced proliferation of Ba/F3 cells expressing hIL-23R and hIL-12Rβ1 of 3.5 nM. Further, the EC50 [nM] Exp 4, hIL-23-induced proliferation of Ba/F3 cells expressing hIL-23R and hIL-12Rβ1 is 2 nM; the IC50, hIL-23-induced proliferation of Ba/F3 cells expressing hIL-23R and hIL-12Rβ1 turned out to be 11.1 nM.
